System: uterine epithelial cells (UEC)
Assay: Sperm binding to UEC monolayer pre-incubated with lectin
Format: cell-based, porcine
Settings: UEC pre-incubated with lectin 10 μg/ml 15 min, then sperm 10 min
Method: Confluent UEC were grown on glass cover slips form primary cell cultures. In total, uteri from 78 primiparous German Landrace or German Edelschwein gilts aged 8-10 months and with live weights of over 110 kg, were retrieved to harvest primary cells. All animals were maintained and handled according to the German regulations for animal welfare. Gilts were monitored for natural oestrus and slaughtered according to standing heat, i.e. at the time when artificial insemination would have been performed. Gilts were stunned electrically and subsequently slaughtered by exsanguination. Three minutes after bleeding the abdomen was opened and the uterus removed in toto. Further, the ovaries, oviducts and the mesometrium were removed by cutting with sterile scissors without damaging the myometrium. The uterine horns were ligated with stitching thread between and a section of 20-25 cm was cut off. The sections were placed in sterile phosphate buffered saline (PBS) without Ca^++ and Mg^++ (Karl Roth, Karlsruhe, Germany) containing 2% Penicillin/Streptomycin (P/S; PAA, Pasching, Austria) in a glass bottle and kept at 5° C. for 45 min. After 45 min at 5° C. the uterine sections were removed from the bottle and placed on cellulose tissue under a sterile laminar flow system. The stitching material was removed. […]

B1: PNA: lectin with affinity for β-D-(1-3)-D-galactosamine (protein, UniProt P02872 24-273, looked up)
Galactose-binding lectin: AETVSFNFNSFSEGNPAINFQGDVTVLSNGNIQLTNLNKVNSVGRVLYAMPVRIWSSATGNVASFLTSFSFEMKDIKDYDPADGIIFFIAPEDTQIPAGSIGGGTLGVSDTKGAGHFVGVEFDTYSNSEYNDPPTDHVGIDVNSVDSVKTVPWNSVSGAVVKVTVIYDSSTKTLSVAVTNDNGDITTIAQVVDLKAKLPERVKFGFSASGSLGGRQIHLIRSWSFTSTLITTTRRSIDNNEKKIMNMASA
In the case of B1, the “effect on sperm binding to UEC (in words)” value is reported as “some areas showed massive sperm binding as seen with untreated UEC, whereas others were not populated at all”.
